Test results from patent publication US20090098124A1 (MacroGenics, published 2009).

Columns and labels:
[1] = target: T1, soluble monomeric FcγRIIIA (extracellular region joined to linker-AVITAG), allele not stated (human, UniProt P08637 17-208); assay: ELISA
T1 construct: extracellular domain; also called FcRIIIA; CD16A; not shown: linker-AVITAG

[2] = target: T2, soluble dimeric FcγRIIB (extracellular domain fused to hinge-CH2-CH3 of human IgG2) (human, UniProt P31994 43-217); assay: ELISA
T2 construct: extracellular domain; also called FcRIIB; FcRIIB-Fc; not shown: human IgG2 hinge-CH2-CH3
T2 sequence (looked up): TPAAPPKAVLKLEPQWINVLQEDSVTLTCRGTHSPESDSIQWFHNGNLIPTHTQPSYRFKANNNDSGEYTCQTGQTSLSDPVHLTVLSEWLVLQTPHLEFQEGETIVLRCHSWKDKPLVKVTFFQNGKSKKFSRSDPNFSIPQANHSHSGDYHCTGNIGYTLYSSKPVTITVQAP

T1 sequence (P08637 17-208): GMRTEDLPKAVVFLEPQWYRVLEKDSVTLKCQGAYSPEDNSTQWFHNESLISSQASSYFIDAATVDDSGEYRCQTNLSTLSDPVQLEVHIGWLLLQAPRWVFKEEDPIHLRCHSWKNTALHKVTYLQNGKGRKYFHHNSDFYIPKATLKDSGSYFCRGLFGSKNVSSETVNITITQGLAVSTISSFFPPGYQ

B1: IgG1 Fc mutant A231V, Q386H, V412M (antibody)
heavy: ASTKGPSVFPLAPSSKSTSGGTAALGCLVKDYFPEPVTVSWNSGALTSGVHTFPAVLQSSGLYSLSSVVTVPSSSLGTQTYICNVNHKPSNTKVDKKVEPKSCDKTHTCPPCPVPELLGGPSVFLFPPKPKDTLMISRTPEVTCVVVDVSHEDPEVKFNWYVDGVEVHNAKTKPREEQYNSTYRVVSVLTVLHQDWLNGKEYKCKVSNKALPAPIEKTISKAKGQPREPQVYTLPPSRDELTKNQVSLTCLVKGFYPSDIAVEWESNGHPENNYKTTPPVLDSDGSFFLYSKLTMDKSRWQQGNVFSCSVMHEALHNHYTQKSLSLSPGK
Binding to FcγRIIIA (ELISA) [1]: 1.5 fold increase | Binding to FcγRIIB (ELISA) [2]: 6 fold increase

B2: IgG1 Fc mutant C229Y, A287T, V379M, P396L, L443V (antibody)
heavy: ASTKGPSVFPLAPSSKSTSGGTAALGCLVKDYFPEPVTVSWNSGALTSGVHTFPAVLQSSGLYSLSSVVTVPSSSLGTQTYICNVNHKPSNTKVDKKVEPKSCDKTHTCPPYPAPELLGGPSVFLFPPKPKDTLMISRTPEVTCVVVDVSHEDPEVKFNWYVDGVEVHNTKTKPREEQYNSTYRVVSVLTVLHQDWLNGKEYKCKVSNKALPAPIEKTISKAKGQPREPQVYTLPPSRDELTKNQVSLTCLVKGFYPSDIAMEWESNGQPENNYKTTPLVLDSDGSFFLYSKLTVDKSRWQQGNVFSCSVMHEALHNHYTQKSLSVSPGK
Binding to FcγRIIIA (ELISA) [1]: 0.25 fold decrease | Binding to FcγRIIB (ELISA) [2]: 10 fold increase

B3: IgG1 Fc mutant P247L, A431V, S442F (antibody)
heavy: ASTKGPSVFPLAPSSKSTSGGTAALGCLVKDYFPEPVTVSWNSGALTSGVHTFPAVLQSSGLYSLSSVVTVPSSSLGTQTYICNVNHKPSNTKVDKKVEPKSCDKTHTCPPCPAPELLGGPSVFLFPPKLKDTLMISRTPEVTCVVVDVSHEDPEVKFNWYVDGVEVHNAKTKPREEQYNSTYRVVSVLTVLHQDWLNGKEYKCKVSNKALPAPIEKTISKAKGQPREPQVYTLPPSRDELTKNQVSLTCLVKGFYPSDIAVEWESNGQPENNYKTTPPVLDSDGSFFLYSKLTVDKSRWQQGNVFSCSVMHEVLHNHYTQKSLFLSPGK
Binding to FcγRIIIA (ELISA) [1]: 1 fold

B4: IgG1 Fc mutant P291S; K288E; H268L: A141V (antibody)
heavy: ASTKGPSVFPLAPSSKSTSGGTAVLGCLVKDYFPEPVTVSWNSGALTSGVHTFPAVLQSSGLYSLSSVVTVPSSSLGTQTYICNVNHKPSNTKVDKKVEPKSCDKTHTCPPCPAPELLGGPSVFLFPPKPKDTLMISRTPEVTCVVVDVSLEDPEVKFNWYVDGVEVHNAETKSREEQYNSTYRVVSVLTVLHQDWLNGKEYKCKVSNKALPAPIEKTISKAKGQPREPQVYTLPPSRDELTKNQVSLTCLVKGFYPSDIAVEWESNGQPENNYKTTPPVLDSDGSFFLYSKLTVDKSRWQQGNVFSCSVMHEALHNHYTQKSLSLSPGK
Binding to FcγRIIIA (ELISA) [1]: 0.5 fold decrease

B5: IgG1 Fc mutant F275I, K334N, V348M (antibody)
heavy: ASTKGPSVFPLAPSSKSTSGGTAALGCLVKDYFPEPVTVSWNSGALTSGVHTFPAVLQSSGLYSLSSVVTVPSSSLGTQTYICNVNHKPSNTKVDKKVEPKSCDKTHTCPPCPAPELLGGPSVFLFPPKPKDTLMISRTPEVTCVVVDVSHEDPEVKINWYVDGVEVHNAKTKPREEQYNSTYRVVSVLTVLHQDWLNGKEYKCKVSNKALPAPIENTISKAKGQPREPQMYTLPPSRDELTKNQVSLTCLVKGFYPSDIAVEWESNGQPENNYKTTPPVLDSDGSFFLYSKLTVDKSRWQQGNVFSCSVMHEALHNHYTQKSLSLSPGK
Binding to FcγRIIIA (ELISA) [1]: 0.5 fold increase

B6: IgG1 Fc mutant P244A, K326I, C367R, S375I, K447T (antibody)
heavy: ASTKGPSVFPLAPSSKSTSGGTAALGCLVKDYFPEPVTVSWNSGALTSGVHTFPAVLQSSGLYSLSSVVTVPSSSLGTQTYICNVNHKPSNTKVDKKVEPKSCDKTHTCPPCPAPELLGGPSVFLFAPKPKDTLMISRTPEVTCVVVDVSHEDPEVKFNWYVDGVEVHNAKTKPREEQYNSTYRVVSVLTVLHQDWLNGKEYKCKVSNIALPAPIEKTISKAKGQPREPQVYTLPPSRDELTKNQVSLTRLVKGFYPIDIAVEWESNGQPENNYKTTPPVLDSDGSFFLYSKLTVDKSRWQQGNVFSCSVMHEALHNHYTQKSLSLSPGT
Binding to FcγRIIB (ELISA) [2]: 3 fold increase

B7: IgG1 Fc mutant F243L, R255L, E318K (antibody)
heavy: ASTKGPSVFPLAPSSKSTSGGTAALGCLVKDYFPEPVTVSWNSGALTSGVHTFPAVLQSSGLYSLSSVVTVPSSSLGTQTYICNVNHKPSNTKVDKKVEPKSCDKTHTCPPCPAPELLGGPSVFLLPPKPKDTLMISLTPEVTCVVVDVSHEDPEVKFNWYVDGVEVHNAKTKPREEQYNSTYRVVSVLTVLHQDWLNGKKYKCKVSNKALPAPIEKTISKAKGQPREPQVYTLPPSRDELTKNQVSLTCLVKGFYPSDIAVEWESNGQPENNYKTTPPVLDSDGSFFLYSKLTVDKSRWQQGNVFSCSVMHEALHNHYTQKSLSLSPGK
Binding to FcγRIIIA (ELISA) [1]: 1 fold increase

B8: IgG1 Fc mutant D280E, S354F, A431D, L441I (antibody)
heavy: ASTKGPSVFPLAPSSKSTSGGTAALGCLVKDYFPEPVTVSWNSGALTSGVHTFPAVLQSSGLYSLSSVVTVPSSSLGTQTYICNVNHKPSNTKVDKKVEPKSCDKTHTCPPCPAPELLGGPSVFLFPPKPKDTLMISRTPEVTCVVVDVSHEDPEVKFNWYVEGVEVHNAKTKPREEQYNSTYRVVSVLTVLHQDWLNGKEYKCKVSNKALPAPIEKTISKAKGQPREPQVYTLPPFRDELTKNQVSLTCLVKGFYPSDIAVEWESNGQPENNYKTTPPVLDSDGSFFLYSKLTVDKSRWQQGNVFSCSVMHEDLHNHYTQKSISLSPGK
Binding to FcγRIIIA (ELISA) [1]: 3 fold increase

B9: IgG1 Fc mutant D221E, D270E, V308A, Q311H, P396L, G402D (antibody)
heavy: ASTKGPSVFPLAPSSKSTSGGTAALGCLVKDYFPEPVTVSWNSGALTSGVHTFPAVLQSSGLYSLSSVVTVPSSSLGTQTYICNVNHKPSNTKVDKKVEPKSCEKTHTCPPCPAPELLGGPSVFLFPPKPKDTLMISRTPEVTCVVVDVSHEEPEVKFNWYVDGVEVHNAKTKPREEQYNSTYRVVSVLTALHHDWLNGKEYKCKVSNKALPAPIEKTISKAKGQPREPQVYTLPPSRDELTKNQVSLTCLVKGFYPSDIAVEWESNGQPENNYKTTPLVLDSDDSFFLYSKLTVDKSRWQQGNVFSCSVMHEALHNHYTQKSLSLSPGK
Binding to FcγRIIIA (ELISA) [1]: 3.6 fold increase | Binding to FcγRIIB (ELISA) [2]: 0.1 fold increase

B10: IgG1 Fc mutant A378V, N390I, V422I (antibody)
heavy: ASTKGPSVFPLAPSSKSTSGGTAALGCLVKDYFPEPVTVSWNSGALTSGVHTFPAVLQSSGLYSLSSVVTVPSSSLGTQTYICNVNHKPSNTKVDKKVEPKSCDKTHTCPPCPAPELLGGPSVFLFPPKPKDTLMISRTPEVTCVVVDVSHEDPEVKFNWYVDGVEVHNAKTKPREEQYNSTYRVVSVLTVLHQDWLNGKEYKCKVSNKALPAPIEKTISKAKGQPREPQVYTLPPSRDELTKNQVSLTCLVKGFYPSDIVVEWESNGQPENIYKTTPPVLDSDGSFFLYSKLTVDKSRWQQGNIFSCSVMHEALHNHYTQKSLSLSPGK
Binding to FcγRIIIA (ELISA) [1]: 0.5 fold increase | Binding to FcγRIIB (ELISA) [2]: 5 fold increase

B11: IgG1 Fc mutant T335N, K370E, A378V, T394M, S424L (antibody)
heavy: ASTKGPSVFPLAPSSKSTSGGTAALGCLVKDYFPEPVTVSWNSGALTSGVHTFPAVLQSSGLYSLSSVVTVPSSSLGTQTYICNVNHKPSNTKVDKKVEPKSCDKTHTCPPCPAPELLGGPSVFLFPPKPKDTLMISRTPEVTCVVVDVSHEDPEVKFNWYVDGVEVHNAKTKPREEQYNSTYRVVSVLTVLHQDWLNGKEYKCKVSNKALPAPIEKNISKAKGQPREPQVYTLPPSRDELTKNQVSLTCLVEGFYPSDIVVEWESNGQPENNYKTMPPVLDSDGSFFLYSKLTVDKSRWQQGNVFLCSVMHEALHNHYTQKSLSLSPGK
Binding to FcγRIIIA (ELISA) [1]: 0.5 fold increase

B12: IgG1 Fc mutant D221Y, M252I, A330G, A339T, T359N, V422I, H433L (antibody)
heavy: ASTKGPSVFPLAPSSKSTSGGTAALGCLVKDYFPEPVTVSWNSGALTSGVHTFPAVLQSSGLYSLSSVVTVPSSSLGTQTYICNVNHKPSNTKVDKKVEPKSCYKTHTCPPCPAPELLGGPSVFLFPPKPKDTLIISRTPEVTCVVVDVSHEDPEVKFNWYVDGVEVHNAKTKPREEQYNSTYRVVSVLTVLHQDWLNGKEYKCKVSNKALPGPIEKTISKTKGQPREPQVYTLPPSRDELNKNQVSLTCLVKGFYPSDIAVEWESNGQPENNYKTTPPVLDSDGSFFLYSKLTVDKSRWQQGNIFSCSVMHEALLNHYTQKSLSLSPGK
Binding to FcγRIIIA (ELISA) [1]: 2.5 fold increase | Binding to FcγRIIB (ELISA) [2]: 6 fold increase

B13: IgG1 Fc mutant K334E, T359N, T366S, Q386R (antibody)
heavy: ASTKGPSVFPLAPSSKSTSGGTAALGCLVKDYFPEPVTVSWNSGALTSGVHTFPAVLQSSGLYSLSSVVTVPSSSLGTQTYICNVNHKPSNTKVDKKVEPKSCDKTHTCPPCPAPELLGGPSVFLFPPKPKDTLMISRTPEVTCVVVDVSHEDPEVKFNWYVDGVEVHNAKTKPREEQYNSTYRVVSVLTVLHQDWLNGKEYKCKVSNKALPAPIEETISKAKGQPREPQVYTLPPSRDELNKNQVSLSCLVKGFYPSDIAVEWESNGRPENNYKTTPPVLDSDGSFFLYSKLTVDKSRWQQGNVFSCSVMHEALHNHYTQKSLSLSPGK
Binding to FcγRIIIA (ELISA) [1]: 1 fold increase

B14: IgG1 Fc mutant T256S, V305I, K334E, N390S (antibody)
heavy: ASTKGPSVFPLAPSSKSTSGGTAALGCLVKDYFPEPVTVSWNSGALTSGVHTFPAVLQSSGLYSLSSVVTVPSSSLGTQTYICNVNHKPSNTKVDKKVEPKSCDKTHTCPPCPAPELLGGPSVFLFPPKPKDTLMISRSPEVTCVVVDVSHEDPEVKFNWYVDGVEVHNAKTKPREEQYNSTYRVVSILTVLHQDWLNGKEYKCKVSNKALPAPIEETISKAKGQPREPQVYTLPPSRDELTKNQVSLTCLVKGFYPSDIAVEWESNGQPENSYKTTPPVLDSDGSFFLYSKLTVDKSRWQQGNVFSCSVMHEALHNHYTQKSLSLSPGK
Binding to FcγRIIIA (ELISA) [1]: 1.5 fold increase
